Assay results from patent publication US9631180B2, “Recombinant manganese oxidase” (OREGON HEALTH & SCIENCE UNIVERSITY, priority 2013, dated 2017).

What was measured:
[1] = literature values for Fet3p ferroxidases, cited from earlier work; for Km: read-out: Fe(II) KM
[2] = substrate: CCn1c(=NN=c2sc3cc(S(=O)(=O)O)ccc3n2CC)sc2cc(S(=O)(=O)O)ccc21; test: purified protein, by the assay type; assay type: biochemical, Bacillus sp. PL-12; settings: other: ABTS, 22° C., 420 nm
Protocol: (§1) FIG. 8B is a plot showing the initial oxidation velocity of DMP plotted against initial substrate concentration in a reaction catalyzed by the recombinant Mn oxidase complex. […]
(§2) All plots in FIGS. 8A, 8B, and 8C were fitted with either Michaelis-Menten or allosteric sigmoidal functions as appropriate.
(§3) Kinetic experiments were performed on the Molecular Devices SpectraMax® M2 microplate reader spectrophotometer at 22° C. with purified protein. […] Reactions were carried out with 10 μg Mnx (final 240 nM) 100 mM in phosphate-citrate buffer pH 3-8 and 20 mM CHES, HEPES, and MES at pH 7-10. […] These assays were performed in at least two independent trials in triplicate. Fe(II) (ferrous ammonium sulfate) oxidation was measured by quenching 200 μl reactions with 50 μl of the Fe(II) chelating colorimetric assay FerroZine® (15 mM) and a ferrous ammonium sulfate standard curve, noting the absorbance at 570 nm. Fe(II) oxidation reactions were performed with 10 μg recombinant Mn oxidase complex in 100 mM Na acetate-acetic acid buffer (pH 4-5.5). Mn(II) (MnCl2) oxidation in 20 mM HEPES (pH 7-8.5) was measured by quenching 5 μl of 200 μl reactions with 195 μl leucoberbelin blue (LBB) colorimetric reagent and reading the absorbance at 618 nm. Working LBB reagent was prepared by diluting concentrated stock (100 mg LBB in 25 ml 0.4% NaOH) 1:10 into 1% acetic acid. A KMnO4 standard curve was used to determine MnO2 oxide equivalent concentration. The metal substrate assays were performed in five independent trials then the high and low values were discarded from each concentration. The linear part of each curve was fit plotted and fit with a linear regression in GraphPad Prism®. These slopes were converted to the appropriate kinetic units, plotted, and fit with nonlinear regressions determined by comparing best fit values in the same software. KM and Vmax were determined and reported as KM and kcat=Vmax/[enzyme].

[3] = substrate: COc1cccc(OC)c1O; test: purified protein, by the assay type; assay type: biochemical, Bacillus sp. PL-12; settings: other: 2,6-DMP, pH 8, HEPES, 22° C., 468 nm, Michaelis-Menten, pH 8.0
Protocol: as §1, §2, §3

[4] = pH 4.5, phosphate-citrate buffer, Michaelis-Menten, pH 4.5
[5] = pH 8, HEPES, allosteric sigmoidal function, pH 8.0

Molecule | Fe(II) kcat [1] [s⁻¹] | Km [1] [µM] | Km [2, 4] [µM] | kcat [2, 4] [s⁻¹] | Km [2, 5] [µM] | kcat [2, 5] [s⁻¹] | Km [3] [µM]
Fet3p S. cerevisiae: ferroxidase Fet3p from Saccharomyces cerevisiae, described in Stoj et al 2006 (protein, UniProt P38993 22-636, looked up) Iron transport multicopper …: ETHTFNWTTGWDYRNVDGLKSRPVITCNGQFPWPDITVNKGDRVQIYLTNGMNNTNTSMHFHGLFQNGTASMDGVPFLTQCPIAPGSTMLYNFTVDYNVGTYWYHSHTDGQYEDGMKGLFIIKDDSFPYDYDEELSLSLSEWYHDLVTDLTKSFMSVYNPTGAEPIPQNLIVNNTMNLTWEVQPDTTYLLRIVNVGGFVSQYFWIEDHEMTVVEIDGITTEKNVTDMLYITVAQRYTVLVHTKNDTDKNFAIMQKFDDTMLDVIPSDLQLNATSYMVYNKTAALPTQNYVDSIDNFLDDFYLQPYEKEAIYGEPDHVITVDVVMDNLKNGVNYAFFNNITYTAPKVPTLMTVLSSGDQANNSEIYGSNTHTFILEKDEIVEIVLNNQDTGTHPFHLHGHAFQTIQRDRTYDDALGEVPHSFDPDNHPAFPEYPMRRDTLYVRPQSNFVIRFKADNPGVWFFHCHIEWHLLQGLGLVLVEDPFGIQDAHSQQLSENHLEVCQSCSVATEGNAAANTLDLTDLTGENVQHAFIPTGFTKKGIIAMTFSCFAGILGIITIAIYGMMDMEDATEKVIRDLHVDPEVLLNEVDENEERQVNEDRHSTEKHQFLTKAKRFF | 0.835 ± 0.023 | 4.9 ± 0.8 | – | – | – | – | –
Fet3p C. albicans: ferroxidase Fet3p from Candida albicans, described in Ziegler et al 2011 (protein, UniProt P78591 21-624, looked up) Iron transport multicopper …: AETHTWYFKTGWVDANPDGVYPRKMIGFNDSWPLPTLRVKKGDRVQLYLINGFDNLNTTLHFHGLFVRGANQMDGPEMVTQCPIPPGETYLYNFTVTDQVGTYWYHSHTGGQYGDGMRGVFIIEDDDFPYHYDEEVVLTLSDHYHKYSGDIGPAFLTRFNPTGAEPIPQNFLFNETRNATWKVEPGKTYFVRILNVGGFVSQYLWMEDHEFTIVEIDGVYVEKNTTDLIYITVAQRYGVLITTKNSTDKNYVFMNGVDTTMLDSVPADLQVNGTNYIVYNESSALPDAYDIDSYDDALDDFYLKPLSKQKLMDDADYTITVDVQMNVLNDGINYAFFNNISYKAPKVPTLLTVLSAGEAATNELIYGTNTNSFVLQGGDIVDIVLNNFDTGKHPFHLHGHVFQLIERHEAIGSKESAVTFNVSDHAEWPEYPMIRDTVYVKPHSYMVLRFKADNPVVWFFHCHVDWHLEQGLAVVLIEDPQAIQKNEKITENHKRICEKVGVPWEGNAAANSNDYLDLKGENVQVKRLPTGFTTKGIVALVFSCVAAFLGLFSFSFYGMNDIAHVEDKVARDLDIDLEAENEDEEEAVVLNQNSSSSDSNSKPH | 1.06 ± 0.02 | 7.9 ± 0.5 | – | – | – | – | –
recombinant Bacillus sp. PL-12 Mn oxidase complex (Mnx; MnxE3F3G), MnxG (SEQ ID NO: 7), MnxE (SEQ ID NO: 5) and MnxF (SEQ ID NO: 6) (Bacillus sp. PL-12) (protein, Cu-loaded; purified ~230 kDa complex of MnxG, MnxE and MnxF; MnxD not found by MS) MLRKFHVVGISTRIVVNTFGDHNPNGRIYVLKENESKLKDLVRKNPYKPIDLVQPLAIRANEGDIVEILFENQLSFSAGMHFQEADYSVLSSDGADAGYNPDTTVEPGGEILYRLNVNQEGICFFTDLGNVSSTEQGSSVQGLFGALLVQKRGSSWTDPVTGGPINSGVYADIHHPFLPSFREYAWFFNDEMEIRDLTGERPLNPMTNQEAESFHGVNLRYEPMTNRKRLMEAGVVCPDCDSEEVHHDSWVFGDPATPILRGYVGDPAVIRLIHGGVKETHVFHYHVHQWLGDSSNINAEILDAQSISPQTHYSIQPLYGLGSLHGAIGDSIIHCHLYPHFGIGMWGMNRVFDTLQDGSQCYPNGVRIKALMPLPDRPEPPKPTPEKPGFPNFIPGKVGYKAPRPPLGIVGGREMTELERNAAIENPRPGAVFVDPCLDQDPVVVEFNVSAIEMPVVYNKQGWHDPKARFYVMDEDLDDILSGKKEPEPLVFHVPAGTCIRMNYTNRMPHILDGDAFQLVTRTYENGFHIHFVKFDVLACDGGNVGWNYDSAVLPGQTIRYEWYAETELKAFFFHDHLFANSHQQHGVFGAGVIQPRFSKFLDSRTGDEVDHGTQISVEHPLIPDYRDQTLFVHDFALLFDKNGRPIQPPEYPGSEDDPGVFGVNFKCEPLKFRLGEDCDPAYSFSSYVHGDPVTPILRAYEGDPIRIRLLQGAHEESHSFNIHGLRWKEERPDLGSSMKAQQHIGISESFTFETEIPASGDYLWAFEDEEDVWLGTWGLIRAYKGRMEDLIVLTDREALPEGSAETPKPTGKPPEKANPLASLPPGAYQGSPVKKFEVVAFQTPIQYNSYGDHDPYGIIFALKEDVEDILTGKKNPVPLILRANVGDLVEVTLTSELKKELFPFQDGIHPYPPVKEQSFYPPSLRISLHTSLLNYDVKTSSGDTVGYNPDQTVGPGETITYRWFVDGQFGMCSMWDMADLRNHRSFGTFGAFVAESRFTTYLDPYSLEKAITGENVILRHPLLPATREFVLILHDGVRLEDKDGKVIIDPMDGVVPDTEELEEVDTYDYGSRGFNYRSERLINRYKEHPVMHELFSSEVFGDPATPLFEAYPGEPVVMRITTPAERRRAHTFHLHGHYWKFDSKDLDSRIQSFLGHMVTGHTDDLRLIGGAGGVFNFPGDYLYRSGNIRWDIELGMWGIFRVHKDSKENLPRLEEVEGGWDNEEKA | – | – | 456 ± 23.3 | 0.206 ± 0.0136 | 3126 ± 391 | 0.0595 ± 0.00891 | 576 ± 163
